Measured values published in patent US6521814B1, “Use of ligands for treatment of diseases responsive to retinoids” (Institut National de la Santa et de la Recherche Medicale, priority 1997, dated 2003).

How the values were obtained:
D2R promoter = D2R promoter CAT reporter assay in transfected COS-1 cells, reporter alone; type: cell-based, rat; conditions: C1 reporter-transfected COS-1 cells, no receptor vector; 10^−7 M
Text: Expression Vectors. The C1 reporter construct was obtained by subcloning the HindIII fragment spanning the 5 ′ promoter region of the D2R gene (positions −495 to +273), in the reporter plasmid pBLCAT3 (Luckow, B. & Schütz, G., Nucleic Acids Res. 15:5490 (1987)). The C2 reporter plasmid was constructed by subcloning the SmaI-XhoI fragment (positions −76 to +273) in the same position. The C3 and C4 reporters were generated by cloning a 29 bp synthetic oligonucleotide corresponding, respectively, to the natural rat D2R RARE sequence and the mutated one into pBLCAT2 (Luckow, B. & Schütz, G., Nucleic Acids Res. 15:5490 (1987)). The polylinker in pBLCAT2 is located upstream of the herpes simplex virus 1 (HSV1) thymidine kinase (TK) promoter, from position −105 to +51. To measure transfection efficiency the plasmid pCH110 carrying the β-galactosidase gene (Pharmacia) was used. Mouse […], as well as mouse RXRα, β and γ expression vectors were derived from the parental pSG5 vector (Green, S., et al., Nucleic Acids Res. 16:369 (1988)).
COS-1 cells were used for transient transfection assays. Cells were grown in Dulbecco's modified Eagle's medium supplemented with 5% fetal calf serum.
Several hours before transfection, the medium was replaced with fresh medium containing 5% charcoal-treated FCS. […]

RARα/RXRγ = biological target: T1, RARα/RXRγ (Mus musculus, UniProt P11416;P28705 P11416:1-462,P28705:1-463); experiment: cell_activity; C3 TK-CAT reporter with one RARE D2 copy, t-RA and 9-cis-RA; conditions: tags: pSG5 expression vectors, COS-1 cells; label: 32P
T1 sequence 1: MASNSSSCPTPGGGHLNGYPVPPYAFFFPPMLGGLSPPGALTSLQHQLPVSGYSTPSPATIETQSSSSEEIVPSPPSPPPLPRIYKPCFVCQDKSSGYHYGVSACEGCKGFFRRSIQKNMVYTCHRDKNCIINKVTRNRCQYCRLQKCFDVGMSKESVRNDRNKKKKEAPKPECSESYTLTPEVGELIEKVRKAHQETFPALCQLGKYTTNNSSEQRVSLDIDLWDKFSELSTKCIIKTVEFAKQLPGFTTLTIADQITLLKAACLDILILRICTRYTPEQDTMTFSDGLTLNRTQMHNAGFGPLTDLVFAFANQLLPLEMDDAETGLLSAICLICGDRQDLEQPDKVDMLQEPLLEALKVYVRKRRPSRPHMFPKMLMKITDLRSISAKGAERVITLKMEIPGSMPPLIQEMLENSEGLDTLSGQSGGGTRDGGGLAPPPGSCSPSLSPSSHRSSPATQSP
T1 sequence 2: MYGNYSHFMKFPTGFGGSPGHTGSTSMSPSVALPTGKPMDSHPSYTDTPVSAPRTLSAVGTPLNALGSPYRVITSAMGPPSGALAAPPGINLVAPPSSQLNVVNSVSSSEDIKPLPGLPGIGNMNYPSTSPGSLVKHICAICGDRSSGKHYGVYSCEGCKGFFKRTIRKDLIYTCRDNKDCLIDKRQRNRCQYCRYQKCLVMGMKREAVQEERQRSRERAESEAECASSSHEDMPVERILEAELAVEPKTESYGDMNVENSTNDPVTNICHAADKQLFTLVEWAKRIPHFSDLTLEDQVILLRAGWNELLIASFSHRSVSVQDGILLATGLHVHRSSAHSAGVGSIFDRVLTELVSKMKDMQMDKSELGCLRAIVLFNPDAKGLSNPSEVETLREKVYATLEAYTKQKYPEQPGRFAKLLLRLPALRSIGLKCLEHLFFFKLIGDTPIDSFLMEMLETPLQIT

[1] = biological target: T2, RARα(ΔAB)/RXRα(ΔAB) heterodimer (Mus musculus, UniProt P11416;P28700 P11416:88-462,P28700:140-467); experiment: competition; drastic decrease of labeled RARE D2 complex at 5-fold excess, complete at 50-fold; stronger than RARE D2; conditions: tags: ΔAB truncations, bacterially expressed, from H. Gronemeyer
T2 sequence 1: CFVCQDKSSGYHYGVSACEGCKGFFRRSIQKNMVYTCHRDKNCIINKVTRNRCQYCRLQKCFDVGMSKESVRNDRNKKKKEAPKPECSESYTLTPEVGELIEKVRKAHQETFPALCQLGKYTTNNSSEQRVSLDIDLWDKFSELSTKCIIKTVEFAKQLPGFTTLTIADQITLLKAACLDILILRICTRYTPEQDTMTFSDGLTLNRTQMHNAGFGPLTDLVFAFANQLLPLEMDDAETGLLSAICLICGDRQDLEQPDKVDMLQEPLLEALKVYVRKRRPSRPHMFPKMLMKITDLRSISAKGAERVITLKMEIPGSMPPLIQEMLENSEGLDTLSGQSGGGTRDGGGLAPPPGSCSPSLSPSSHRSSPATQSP
T2 sequence 2: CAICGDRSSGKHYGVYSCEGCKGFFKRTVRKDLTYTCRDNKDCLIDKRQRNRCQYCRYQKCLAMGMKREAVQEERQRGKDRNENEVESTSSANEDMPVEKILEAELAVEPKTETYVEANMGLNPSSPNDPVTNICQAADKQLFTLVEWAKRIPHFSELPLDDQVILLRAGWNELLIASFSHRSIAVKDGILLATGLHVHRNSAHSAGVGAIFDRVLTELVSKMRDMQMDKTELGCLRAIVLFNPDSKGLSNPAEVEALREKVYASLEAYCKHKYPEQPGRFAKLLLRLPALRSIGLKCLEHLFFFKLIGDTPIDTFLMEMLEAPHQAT
Text: (§1) DNA binding competition assays. Gel shift analysis using labeled RARE D2 (SEQ ID NO:2) and recombinant RARα and RXRα as indicated. As competitors, RARE D2 (SEQ ID NO:2), RAREβ2 (SEQ ID NO:5) and the mutant […] and […] cold oligonucleotides (SEQ ID NO:3) were used as indicated at 5, 50- and 100-fold molar excess. The black arrowhead indicates the shifted complex.
(§2) DNA Binding Assays. A 29-bp synthetic oligonucleotide (SEQ ID NO:2) corresponding to the RARE region in the D2R promoter (SEQ ID NO:1) (from positions −76 to −49), in addition to two mutated oligonucleotides (SEQ ID NOs:3 and 4) (FIG. 7A) were used in gel retardation assays. A synthetic oligonucleotide corresponding to the RARE-β2 (SEQ ID NO:5) (Mader, S., et al., *J. Biol. Chem.* 268:591–600 (1993)) was used as positive control. Bacterially-expressed purified mouse RARα (ΔAB) and RXRα (ΔAB) proteins were kindly provided by H. Gronemeyer.

[2] = biological target: T2, RARα(ΔAB)/RXRα(ΔAB) heterodimer; experiment: competition; no competition even at 100-fold excess; conditions: tags: ΔAB truncations, bacterially expressed, from H. Gronemeyer
Text: as §1
(§3) To further characterize the D2R RARE element and its binding affinity to retinoid receptors, mutations were introduced into this sequence generating D2 ml (SEQ ID NO:3) and D2 m2 (SEQ ID NO:4) (FIG. 7A). These mutated oligonucleotides were used for competition in gel-shift assays (FIG. 8).
as §2

[3] = biological target: T2, RARα(ΔAB)/RXRα(ΔAB) heterodimer; experiment: competition; competes more efficiently than native RARE D2; conditions: tags: ΔAB truncations, bacterially expressed, from H. Gronemeyer
Text: as §1, §3, §2

Question: How did the “changes in CAT activity” value (D2R promoter) turn out when CC1=C(/C=C/C(C)=C\C=C\C(C)=C\C(=O)O)C(C)(C)CCC1 [9-cis-RA, 9-cis RA] was run?
Answer: The value was “no significant changes”.

B1: RARE D2 (dsDNA)
DNA 1: AGCTTCCTCGTGGCCAGGGTGACCCCGCG
DNA 2: CGCGGGGTCACCCTGGCCACGAGGAAGCT
Question: B1 was tested. Which activity (RARα/RXRγ) did it give?
Answer: The activity was 11 fold.

B2: RAREβ2 (dsDNA)
DNA 1: GGGTAGGGTTCACCGAAAGTTCACTG
DNA 2: CAGTGAACTTTCGGTGAACCCTACCC
Question: Does B2 bind [1]?
Answer: Result: binds

B3: D2m1 (dsDNA)
DNA 1: AGCTTCCTCGGTGCGAGGGGTACGCCGCG
DNA 2: CGCGGCGTACCCCTCGCACCGAGGAAGCT
Question: Does B3 bind [2]?
Answer: Result: no binding

B4: D2m2 (dsDNA)
DNA 1: AGCTTCCTCGTGACCAGGGTGACCCCGCG
DNA 2: CGCGGGGTCACCCTGGTCACGAGGAAGCT
Question: Does B4 bind [3]?
Answer: Result: binds
